The source of these data is paper PMC10802454.

This experiment concerns the target AriA (Escherichia coli strain B185). As to the kind of experiment: cryo-EM structure.

In general, stoichiometry N refers to the number of molecules, sites or subunits per partner or assembly.

AriA (natural protein) showed a stoichiometry N of 6.
